How the values were obtained:
Type in all cases: binding
[1] = system: KLC2; test: Co-immunoprecipitation of KLC2 versus KLC1 with mCherry-DIC1a in COS cells; settings: COS cell lysates, IP anti-mCherry, band intensity relative to KLC1, n = 4 experiments
[2] = system: KIF5C stalk (561–774); test: Co-immunoprecipitation of DIC1a with KIF5C head, stalk and tail constructs in COS cells; settings: IP anti-GFP, Figures 4B and 4C
[3] = system: KIF5A, KIF5B, KIF5C; test: Co-immunoprecipitation of DIC1a with myc-tagged KIF5 isoforms in COS cells; settings: IP anti-myc, Figure 4A

B1: DIC1a: neuron-specific dynein intermediate chain isoform, expressed in COS cells (protein)
chain: MSDKSDLKAELERKKQRLAQIREEKKRKEEERKKKEADMQQKKEPVPDDSDLDRKRRETEALLQSIGISPEPPLVQPLHFLTWDTCYFHYLVPTPMSPSSKSVSTPSEAGSQDDLGPLTRTLQWDTDPSVLQLQSDSELGRRLNKLGVSKVTQVDFLPREVVSYSKETQTPLATHQSEEDEEDEEMVEPKVGHDSELENQDKKQETKEAPPRELTEEEKQQILHSEEFLIFFDRTIRVIERALAEDSDIFFDYSGRELEEKDGDVQAGANLSFNRQFYDEHWSKHRVVTCMDWSLQYPELMVASYSNNEDAPHEPDGVALVWNMKFKKTTPEYVFHCQSSVMSVCFARFHPNLVVGGTYSGQIVLWDNRSHRRTPVQRTPLSAAAHTHPVYCVNVVGTQNAHNLITVSTDGKMCSWSLDMLSTPQESMELVYNKSKPVAVTGMAFPTGDVNNFVVGSEEGTVYTACRHGSKAGIGEVFEGHQGPVTGINCHMAVGPIDFSHLFVTSSFDWTVKLWTTKHNKPLYSFEDNADYVYDVMWSPVHPALFACVDGMGRLDLWNLNSDTEVPTASVAIEGAYALNRVRWAQGGKEVAVGDSEGRIWIYDVGELAVPHNDEWTRFARTLVEIRANRADSEEEGAVELAA
modifications: left off: mCherry, end not stated, kept
notes: neuron-specific dynein intermediate chain isoform, expressed in COS cells
[1]
  KLC2 relative to KLC1 co-immunoprecipitated with DIC1a: 5 fold
[2]
  co-precipitation with stalk region of KIF5C: co-precipitated
[3]
  co-precipitation with all three KIF5 isoforms: co-precipitated

— PMC4893161, “The Dynamic Localization of Cytoplasmic Dynein in Neurons Is Driven by Kinesin-1” (Neuron, 2016)
